For seven molecules, Kd, koff and dwell time results are on record in publication PMC8240473 (DNA repair, 2020).

“And” between values parts separate entries of the source, which are not always exact repeats. Equal entries are not always repeated. Where two headings read alike, the source gives them in different places. No end group written: not given here. *: point of attachment. Biotin = O=C1N[C@H]2[C@H](CS[C@H]2CCCCC(=O)*)N1; Ahx = NCCCCCC(=O)O

To fix the notation:
B1: N-terminally biotinylated peptide containing PIP1 of pol η (peptide)
chain: {Biotin-Ahx}-QKKQVTSSKNILSFFTRKK
B2: Rad6-Rad18 complex, purified (complex, yeast)
chain 1: MDHQITTASDFTTTSIPSLYQLDTLLRCHICKDFLKVPVLTPCGHTFCSLCIRTHLNNQPNCPLCLFEFRESLLRSEFLVSEIIQSYTSLRSSLLDALRIPKPTPVPENEEVPGPENSSWIELISESESDSVNAADDDLQIVATSERKLAKRSMTDILPLSSKPSKRNFAMFRSERIKKKSKPNEQMAQCPICQQFYPLKALEKTHLDECLTLQSLGKKPKISTTFPTESNPHNKSSSRFKVRTPEVDKSSCGETSHVDKYLNSMMSAEHQRLPKINFTSMTQSQIKQKLSSLGLSTNGTRQNMIKRYNHYEMLWNSNFCDSLEPVDEAELKRQLLSWDVSHNKTPQNSSNKGGISKLMIMKSNGKSSSYRKLLENFKNDKFNRKGWMVMFRKDFARLIREAKMKIKTGSSDSSGSVGHSNDGDGVEKVQSDQGTEDQQMEKDQDTVINEDRVAGERNLPNEDSTDADLSRELMDLNEYSKDPPGNN
chain 2: MSTPARRRLMRDFKRMKEDAPPGVSASPLPDNVMVWNAMIIGPADTPYEDGTFRLLLEFDEEYPNKPPHVKFLSEMFHPNVYANGEICLDILQNRWTPTYDVASILTSIQSLFNDPNPASPANVEAATLFKDHKSQYVKRVKETVEKSWEDDMDDMDDDDDDDDDDDDDEAD
B3: Rad6, purified (enzyme, yeast, UniProt P06104 1-172, looked up)
chain: B2 chain 2
B4: PCNA, purified (natural protein, yeast, UniProt P15873 1-258, looked up)
chain: MLEAKFEEASLFKRIIDGFKDCVQLVNFQCKEDGIIAQAVDDSRVLLVSLEIGVEAFQEYRCDHPVTLGMDLTSLSKILRCGNNTDTLTLIADNTPDSIILLFEDTKKDRIAEYSLKLMDIDADFLKIEELQYDSTLSLPSSEFSKIVRDLSQLSDSINIMITKETIKFVADGDIGSGSVIIKPFVDMEHPETSIKLEMDQPVDLTFGAKYLLDIIKGSSLSDRVGIRLSSEAPALFQFDLKSGFLQFFLAPKFNDEE

Holding throughout (test): BLI
Background: BLI is a label-free optical method that tracks binding on a fibre tip over time.

For assay [1], the target named is N-terminally biotinylated peptide containing the R6BD of Rad18 (yeast).
Assay [2] has the same target. The source holds these as a separate data set.
Assay [3] addresses B2.
The target in assay [4] is B3.
For assay [5], the target named is B4.
Assay [6] has as its target B1.

On to “Rad6, purified (from UniProt P06104 1-172) (enzyme)”, for which the Kd (in general, a measure of binding affinity in units of concentration) in assay [1] was 2500 nM; in assay [2], 2800 nM.
Consider {Biotin-Ahx}-ESSKNLSFGEKRLLFSRKRP [N-terminally biotinylated peptide containing PIP2 of pol η], for which the Kd in assay [3] was 3700 ± 500 nM; in assay [5], 12000 nM and 13000 nM. Moreover, the koff (as a rule, a measure of how fast the partners let go of each other) amounted to 0.13 s⁻¹ in assay [3], 0.6 s⁻¹ in assay [4] and 0.3 s⁻¹ in assay [5].
The molecule NKRLKKQGTLESFFKRKAK (not fully specified) [PIP-like motif of Pol32 (peptide)] came in with a Kd in assay [4] of 600 nM.
In the case of B1, the Kd in assay [3] turned out to be 1200 ± 100 nM; in assay [4], 2300 ± 400 nM; in assay [5] it was 7.2 ± 2.4 nM. Moreover, the values for the koff in assay [3], in assay [4] and in assay [5] were 0.0008 s⁻¹, 0.02 s⁻¹ and 0.0054 s⁻¹, respectively.
On to B2, for which the dwell time in assay [6] amounted to 1300 s.
With B3, the dwell time in assay [6] was 50 s.
Still for that read-out and setting: with B4 the figure was 190 s.
